B1: CROP (parent)
chain: VFGRGDNISDVSKFLEDDKWMEE
B2: C8orf76 (parent)
chain: KLAEAYLNLGPALSAALASSQKQH

The text below walks through data of the supplement of paper PMC10567573.
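Also: lentivirally expressed fusions sorted by FACS into six bins by GFP to DsRed ratio, PSI derived from sequencing read proportions per bin multiplied by bin number.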

In the first data set the parent is B1. In words: protein stability index of a GFP-peptide fusion (GPS, HEK-293T) (PSI 1-6); higher = more stable. The following applies: c terminus: native.
Turning to VFGRGDNISDVSDFLEDDKWMEE [K13D], the protein stability index is 2.83.
On to VFGRGDNISDVSFFLEDDKWMEE [K13F], for which the protein stability index stood at 2.04.
Same read-out and setting: in the case of VFGRGDNISDVSTFLEDDKWMEE [K13T] it was 1.72.
Consider VFGRGDNISDVSMFLEDDKWMEE [K13M], for which the protein stability index came out at 2.69.
For VFGRGDNISDVSGFLEDDKWMEE [K13G], the protein stability index worked out at 2.02.
Regarding VFGRGDNISDVSNFLEDDKWMEE [K13N], the protein stability index was 1.91.
On to VFGRGDNISDVSVFLEDDKWMEE [K13V], for which the protein stability index amounted to 1.54.
In the case of VFGRGDNISDVSSFLEDDKWMEE [K13S], the protein stability index turned out to be 2.65.
Consider VFGRGDNISDVSEFLEDDKWMEE [K13E], for which the protein stability index amounted to 2.41.
For the variant VFGRGDNISDVSPFLEDDKWMEE [K13P], the protein stability index worked out at 1.14.
Same read-out and setting: in the case of VFGRGDNISDVSRFLEDDKWMEE [K13R] it was 1.89; in that of VFGRGDNISDVSIFLEDDKWMEE [K13I], 2.69; in that of VFGRGDNISDVSAFLEDDKWMEE [K13A], 2.29.
For the variant VFGRGDNISDVSCFLEDDKWMEE [K13C], the protein stability index is 1.74.
Regarding VFGRGDNISDVSKCLEDDKWMEE [F14C], the protein stability index turned out to be 3.8.
VFGRGDNISDVSKRLEDDKWMEE [F14R]: the protein stability index came out at 3.29.
Take VFGRGDNISDVSKNLEDDKWMEE [F14N]: the protein stability index was determined as 3.54.
Regarding VFGRGDNISDVSKVLEDDKWMEE [F14V], the protein stability index came to 3.01.
Still for that read-out and setting: in the case of VFGRGDNISDVSKILEDDKWMEE [F14I] it was 3.83; in that of VFGRGDNISDVSKGLEDDKWMEE [F14G], 2.58; in that of VFGRGDNISDVSKQLEDDKWMEE [F14Q], 3.34.
With VFGRGDNISDVSKWLEDDKWMEE [F14W], the protein stability index was found to be 1.96.
Consider VFGRGDNISDVSKHLEDDKWMEE [F14H], for which the protein stability index is 4.16.
Consider VFGRGDNISDVSKSLEDDKWMEE [F14S], for which the protein stability index was determined as 4.16.
With VFGRGDNISDVSKTLEDDKWMEE [F14T], the protein stability index was found to be 4.42.
With VFGRGDNISDVSKELEDDKWMEE [F14E], the protein stability index was 4.92.
VFGRGDNISDVSKKLEDDKWMEE [F14K]: the protein stability index was 4.08.
Consider VFGRGDNISDVSKLLEDDKWMEE [F14L], for which the protein stability index turned out to be 2.43.
For VFGRGDNISDVSKPLEDDKWMEE [F14P], the protein stability index amounted to 4.07.
Take VFGRGDNISDVSKYLEDDKWMEE [F14Y]: the protein stability index stood at 2.03.
As for VFGRGDNISDVSKMLEDDKWMEE [F14M], the protein stability index was 2.42.
Still for that read-out and setting: in the case of VFGRGDNISDVSKALEDDKWMEE [F14A] it was 4.31; in that of VFGRGDNISDVSKDLEDDKWMEE [F14D], 3.96.
In the case of VFGRGDNISDVNKFLEDDKWMEE [S12N], the protein stability index turned out to be 2.
Take VFGRGDNISDVIKFLEDDKWMEE [S12I]: the protein stability index turned out to be 2.32.
Consider VFGRGDNISDVKKFLEDDKWMEE [S12K], for which the protein stability index was determined as 2.2.
Consider VFGRGDNISDVPKFLEDDKWMEE [S12P], for which the protein stability index stood at 1.61.
With VFGRGDNISDVTKFLEDDKWMEE [S12T], the protein stability index was 2.67.
On to VFGRGDNISDVVKFLEDDKWMEE [S12V], for which the protein stability index is 1.86.
As for VFGRGDNISDVRKFLEDDKWMEE [S12R], the protein stability index stood at 1.92.
On to VFGRGDNISDVYKFLEDDKWMEE [S12Y], for which the protein stability index is 1.74.
On the same count and under the same terms, in the case of VFGRGDNISDVQKFLEDDKWMEE [S12Q] it was 2.19; in that of VFGRGDNISDVHKFLEDDKWMEE [S12H], 2.31; in that of VFGRGDNISDVSKFLEDDKWSEE [M21S], 2.52.
Still for that read-out and setting: in the case of VFGRGDNISDVSKFLEDDKWNEE [M21N] it was 1.43; in that of VFGRGDNISDVSKFLEDDKWFEE [M21F], 2.28.
Take VFGRGDNISDVSKFLEDDKWHEE [M21H]: the protein stability index is 2.25.
In the case of VFGRGDNISDVSKFLEDDKWGEE [M21G], the protein stability index worked out at 4.04.
Regarding VFGRGDNISDVSKFLEDDKWAEE [M21A], the protein stability index was found to be 1.86.
The same measure, in the same setting: in the case of VFGRGDNISDVSKFLEDDKWYEE [M21Y] it was 2.28.
As for VFGRGDNISDVSKFLEDDKWTEE [M21T], the protein stability index is 2.51.
VFGRGDNISDVSKFLEDDKWWEE [M21W]: the protein stability index was 1.97.
In the case of VFGRGDNISDVSKFLEDDKWIEE [M21I], the protein stability index came out at 1.27.
The same measure, in the same setting: in the case of VFGRGDNISDVSKFLEDDKWDEE [M21D] it was 4.49; in that of VFGRGDNISDVSKFLEDDKWPEE [M21P], 1.38; in that of VFGRGDNISDVSKFLEDDKWEEE [M21E], 4.
Turning to VFGRGDNISDVSKFLEDDKWQEE [M21Q], the protein stability index amounted to 2.94.
Turning to VFGRGDNISDVSKFLEDDKWVEE [M21V], the protein stability index is 1.87.
Consider VFGRGDNISDVSKFLEDDKWCEE [M21C], for which the protein stability index came to 3.53.
For VFGRGDNISDVSKFLEDDKNMEE [W20N], the protein stability index worked out at 4.72.
With VFGRGDNISDVSKFLEDDKYMEE [W20Y], the protein stability index worked out at 3.39.
Turning to VFGRGDNISDVSKFLEDDKRMEE [W20R], the protein stability index turned out to be 3.94.
Still for that read-out and setting: in the case of VFGRGDNISDVSKFLEDDKCMEE [W20C] it was 4.08; in that of VFGRGDNISDVSKFLEDDKIMEE [W20I], 3.97; in that of VFGRGDNISDVSKFLEDDKDMEE [W20D], 4.04.
On to VFGRGDNISDVSKFLEDDKMMEE [W20M], for which the protein stability index was 3.12.
Turning to VFGRGDNISDVSKFLEDDKEMEE [W20E], the protein stability index is 4.25.
For VFGRGDNISDVSKFLEDDKGMEE [W20G], the protein stability index stood at 3.92.
Still for that read-out and setting: in the case of VFGRGDNISDVSKFLEDDKVMEE [W20V] it was 3.81; in that of VFGRGDNISDVSKFLEDDKAMEE [W20A], 4.2; in that of VFGRGDNISDVSKFLEDDKKMEE [W20K], 3.78.
For VFGRGDNISDVSKFLEDDKSMEE [W20S], the protein stability index worked out at 4.28.
Regarding VFGRGDNISDVSKFLEDDKQMEE [W20Q], the protein stability index turned out to be 3.4.
In the case of VFGRGDNISDVSKFLEDDKHMEE [W20H], the protein stability index was found to be 4.34.
On to VFGRGDNISDVSKFLEDDKFMEE [W20F], for which the protein stability index stood at 4.18.
For the variant VFGRGDNISDVSKFLEDDKLMEE [W20L], the protein stability index worked out at 2.54.
In the case of VFGRGDNISDVSKFLEDDKTMEE [W20T], the protein stability index was found to be 4.17.
For VFGRGDNISDVSKFDEDDKWMEE [L15D], the protein stability index is 1.85.
As to VFGRGDNISDVSKFHEDDKWMEE [L15H], the protein stability index was 3.35.
Regarding VFGRGDNISDVSKFFEDDKWMEE [L15F], the protein stability index amounted to 1.06.
For VFGRGDNISDVSKFIEDDKWMEE [L15I], the protein stability index was found to be 1.93.
With VFGRGDNISDVSKFPEDDKWMEE [L15P], the protein stability index is 2.81.
Turning to VFGRGDNISDVSKFSEDDKWMEE [L15S], the protein stability index came out at 2.28.
For the variant VFGRGDNISDVSKFTEDDKWMEE [L15T], the protein stability index was determined as 3.47.
Same read-out and setting: in the case of VFGRGDNISDVSKFKEDDKWMEE [L15K] it was 3.01; in that of VFGRGDNISDVSKFEEDDKWMEE [L15E], 3.77.
For VFGRGDNISDVSKFAEDDKWMEE [L15A], the protein stability index came out at 3.09.
In the case of VFGRGDNISDVSKFNEDDKWMEE [L15N], the protein stability index amounted to 3.32.
In the case of VFGRGDNISDVSKFMEDDKWMEE [L15M], the protein stability index was 2.06.
VFGRGDNISDVSKFQEDDKWMEE [L15Q]: the protein stability index amounted to 3.7.
Regarding VFGRGDNISDVSKFREDDKWMEE [L15R], the protein stability index came to 2.91.
The same measure, in the same setting: in the case of VFGRGDNISDVSKFYEDDKWMEE [L15Y] it was 2.21; in that of VFGRGDNISDVSKFGEDDKWMEE [L15G], 2.8; in that of VFGRGDNISDVSKFCEDDKWMEE [L15C], 2.64.
As for VFGRGDNISDVSKFVEDDKWMEE [L15V], the protein stability index was 1.94.
Same read-out and setting: in the case of VFGRGDNISDVSKFWEDDKWMEE [L15W] it was 2.1.

In the next data set the parent is B2. Described as above. Conditions: c terminus: a fixed tail appended.
Turning to ALAEAYLNLGPALSAALASSQKQH [K1A], the protein stability index stood at 2.64.
